Article PMC12416549 (2024)

T1: TNFR1 (Homo sapiens, UniProt P19438)
T1 chain: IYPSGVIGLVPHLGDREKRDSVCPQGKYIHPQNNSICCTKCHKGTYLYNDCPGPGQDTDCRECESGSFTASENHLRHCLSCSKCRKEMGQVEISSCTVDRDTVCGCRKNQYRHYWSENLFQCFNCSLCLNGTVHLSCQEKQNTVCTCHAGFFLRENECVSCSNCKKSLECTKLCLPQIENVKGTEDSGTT


Target: T1, TNFR1
Experiment: yeast display SC50

apparent Kd (screen) [nM] | Binder
0.718 | E99Y (designed binder) MTLQELLREEALRRAEAEAFRYALELLAEKFPEQKEYLLDLAEEIESQIRSLSGVDVEDVRKFLDKEWAWVKELLAEHPAELAEVEAARAARLAELRAYVEAKVAA
0.718 | Y22L (designed binder) MTLQELLREEALRRAEAEAFRLALELLAEKFPEQKEYLLDLAEEIESQIRSLSGVDVEDVRKFLDKEWAWVKELLAEHPAELAEVEAARAARLAELRAEVEAKVAA
0.593 | A83M (designed binder) MTLQELLREEALRRAEAEAFRYALELLAEKFPEQKEYLLDLAEEIESQIRSLSGVDVEDVRKFLDKEWAWVKELLAEHPAELMEVEAARAARLAELRAEVEAKVAA
1.27 | Q48V (designed binder) MTLQELLREEALRRAEAEAFRYALELLAEKFPEQKEYLLDLAEEIESVIRSLSGVDVEDVRKFLDKEWAWVKELLAEHPAELAEVEAARAARLAELRAEVEAKVAA
24.4 | I49P (designed binder) MTLQELLREEALRRAEAEAFRYALELLAEKFPEQKEYLLDLAEEIESQPRSLSGVDVEDVRKFLDKEWAWVKELLAEHPAELAEVEAARAARLAELRAEVEAKVAA
0.446 | S51W (designed binder) MTLQELLREEALRRAEAEAFRYALELLAEKFPEQKEYLLDLAEEIESQIRWLSGVDVEDVRKFLDKEWAWVKELLAEHPAELAEVEAARAARLAELRAEVEAKVAA
0.539 | E5K (designed binder) MTLQKLLREEALRRAEAEAFRYALELLAEKFPEQKEYLLDLAEEIESQIRSLSGVDVEDVRKFLDKEWAWVKELLAEHPAELAEVEAARAARLAELRAEVEAKVAA
1.27 | E99A (designed binder) MTLQELLREEALRRAEAEAFRYALELLAEKFPEQKEYLLDLAEEIESQIRSLSGVDVEDVRKFLDKEWAWVKELLAEHPAELAEVEAARAARLAELRAAVEAKVAA
0.49 | M1G (designed binder) GTLQELLREEALRRAEAEAFRYALELLAEKFPEQKEYLLDLAEEIESQIRSLSGVDVEDVRKFLDKEWAWVKELLAEHPAELAEVEAARAARLAELRAEVEAKVAA
11.4 | F20D (designed binder) MTLQELLREEALRRAEAEADRYALELLAEKFPEQKEYLLDLAEEIESQIRSLSGVDVEDVRKFLDKEWAWVKELLAEHPAELAEVEAARAARLAELRAEVEAKVAA
0.539 | Q4W (designed binder) MTLWELLREEALRRAEAEAFRYALELLAEKFPEQKEYLLDLAEEIESQIRSLSGVDVEDVRKFLDKEWAWVKELLAEHPAELAEVEAARAARLAELRAEVEAKVAA
0.718 | E18A (designed binder) MTLQELLREEALRRAEAAAFRYALELLAEKFPEQKEYLLDLAEEIESQIRSLSGVDVEDVRKFLDKEWAWVKELLAEHPAELAEVEAARAARLAELRAEVEAKVAA
0.593 | E81M (designed binder) MTLQELLREEALRRAEAEAFRYALELLAEKFPEQKEYLLDLAEEIESQIRSLSGVDVEDVRKFLDKEWAWVKELLAEHPAMLAEVEAARAARLAELRAEVEAKVAA
13.8 | W70M (designed binder) MTLQELLREEALRRAEAEAFRYALELLAEKFPEQKEYLLDLAEEIESQIRSLSGVDVEDVRKFLDKEWAMVKELLAEHPAELAEVEAARAARLAELRAEVEAKVAA
1.05 | A42T (designed binder) MTLQELLREEALRRAEAEAFRYALELLAEKFPEQKEYLLDLTEEIESQIRSLSGVDVEDVRKFLDKEWAWVKELLAEHPAELAEVEAARAARLAELRAEVEAKVAA
2.05 | L6F (designed binder) MTLQEFLREEALRRAEAEAFRYALELLAEKFPEQKEYLLDLAEEIESQIRSLSGVDVEDVRKFLDKEWAWVKELLAEHPAELAEVEAARAARLAELRAEVEAKVAA
3.3 | A42F (designed binder) MTLQELLREEALRRAEAEAFRYALELLAEKFPEQKEYLLDLFEEIESQIRSLSGVDVEDVRKFLDKEWAWVKELLAEHPAELAEVEAARAARLAELRAEVEAKVAA
0.446 | A87C (designed binder) MTLQELLREEALRRAEAEAFRYALELLAEKFPEQKEYLLDLAEEIESQIRSLSGVDVEDVRKFLDKEWAWVKELLAEHPAELAEVECARAARLAELRAEVEAKVAA

apparent Kd (screen) [nM] | Binder
5.84 | L82P (designed binder) MTLQELLREEALRRAEAEAFRYALELLAEKFPEQKEYLLDLAEEIESQIRSLSGVDVEDVRKFLDKEWAWVKELLAEHPAEPAEVEAARAARLAELRAEVEAKVAA
0.956 | S53A (designed binder) MTLQELLREEALRRAEAEAFRYALELLAEKFPEQKEYLLDLAEEIESQIRSLAGVDVEDVRKFLDKEWAWVKELLAEHPAELAEVEAARAARLAELRAEVEAKVAA
0.718 | E58A (designed binder) MTLQELLREEALRRAEAEAFRYALELLAEKFPEQKEYLLDLAEEIESQIRSLSGVDVADVRKFLDKEWAWVKELLAEHPAELAEVEAARAARLAELRAEVEAKVAA
0.869 | H78T (designed binder) MTLQELLREEALRRAEAEAFRYALELLAEKFPEQKEYLLDLAEEIESQIRSLSGVDVEDVRKFLDKEWAWVKELLAETPAELAEVEAARAARLAELRAEVEAKVAA
0.49 | A69L (designed binder) MTLQELLREEALRRAEAEAFRYALELLAEKFPEQKEYLLDLAEEIESQIRSLSGVDVEDVRKFLDKEWLWVKELLAEHPAELAEVEAARAARLAELRAEVEAKVAA
0.539 | A76V (designed binder) MTLQELLREEALRRAEAEAFRYALELLAEKFPEQKEYLLDLAEEIESQIRSLSGVDVEDVRKFLDKEWAWVKELLVEHPAELAEVEAARAARLAELRAEVEAKVAA
0.653 | D59G (designed binder) MTLQELLREEALRRAEAEAFRYALELLAEKFPEQKEYLLDLAEEIESQIRSLSGVDVEGVRKFLDKEWAWVKELLAEHPAELAEVEAARAARLAELRAEVEAKVAA
2.25 | L7I (designed binder) MTLQELIREEALRRAEAEAFRYALELLAEKFPEQKEYLLDLAEEIESQIRSLSGVDVEDVRKFLDKEWAWVKELLAEHPAELAEVEAARAARLAELRAEVEAKVAA
0.869 | A90H (designed binder) MTLQELLREEALRRAEAEAFRYALELLAEKFPEQKEYLLDLAEEIESQIRSLSGVDVEDVRKFLDKEWAWVKELLAEHPAELAEVEAARHARLAELRAEVEAKVAA
0.956 | R21T (designed binder) MTLQELLREEALRRAEAEAFTYALELLAEKFPEQKEYLLDLAEEIESQIRSLSGVDVEDVRKFLDKEWAWVKELLAEHPAELAEVEAARAARLAELRAEVEAKVAA
2.73 | K35P (designed binder) MTLQELLREEALRRAEAEAFRYALELLAEKFPEQPEYLLDLAEEIESQIRSLSGVDVEDVRKFLDKEWAWVKELLAEHPAELAEVEAARAARLAELRAEVEAKVAA
0.49 | Y22F (designed binder) MTLQELLREEALRRAEAEAFRFALELLAEKFPEQKEYLLDLAEEIESQIRSLSGVDVEDVRKFLDKEWAWVKELLAEHPAELAEVEAARAARLAELRAEVEAKVAA
0.539 | R50C (designed binder) MTLQELLREEALRRAEAEAFRYALELLAEKFPEQKEYLLDLAEEIESQICSLSGVDVEDVRKFLDKEWAWVKELLAEHPAELAEVEAARAARLAELRAEVEAKVAA
2.48 | L41A (designed binder) MTLQELLREEALRRAEAEAFRYALELLAEKFPEQKEYLLDAAEEIESQIRSLSGVDVEDVRKFLDKEWAWVKELLAEHPAELAEVEAARAARLAELRAEVEAKVAA
1.27 | E77I (designed binder) MTLQELLREEALRRAEAEAFRYALELLAEKFPEQKEYLLDLAEEIESQIRSLSGVDVEDVRKFLDKEWAWVKELLAIHPAELAEVEAARAARLAELRAEVEAKVAA
0.718 | D65R (designed binder) MTLQELLREEALRRAEAEAFRYALELLAEKFPEQKEYLLDLAEEIESQIRSLSGVDVEDVRKFLRKEWAWVKELLAEHPAELAEVEAARAARLAELRAEVEAKVAA
0.869 | L39W (designed binder) MTLQELLREEALRRAEAEAFRYALELLAEKFPEQKEYLWDLAEEIESQIRSLSGVDVEDVRKFLDKEWAWVKELLAEHPAELAEVEAARAARLAELRAEVEAKVAA
